Results as given in US20070224196A1 (ELUSYS THERAPEUTICS, published 2007).

B1: E DI VH4/VL2 (antibody, V domains shown)
VH: DVQLQESGPGLVKPSQTLSLTCTVSGYSITSDYAWNWIRQFPGKGLEWIGYISYSGSTSYHPSLKSRISISRDTSKNQFFLQMNSVTTEDTATYYCTTIINYDKYDWYFDVWGQGTTVTVSS
VL: DIVLTQSPASLVVSVRQRATISCRASQSVRTSSYSYIHWYQQKPGQPPKLLIKYASSLESGVPARFSGSGSGTDFTLNISPVEEEDTATYYCQHSWEIPWTFGPGTTVEIK
notes: also called E DI V4/VL2
B2: E DI VH3/VL2 15A12 (antibody, V domains shown)
VH: DVQLQESGPGLVKPSQTLSLTCTVSGYSMTSDYAWNWIRQFPGKGLEWIGYISYSGSTSYHPSLKSRISISRDTSKNQFFLQMNSVTTEDTATYYCTTIINYDKYDWYFDVWGQGTTVTVSS
VL: DIVLTQSPASLVVSVRQRATISCRASQSVRTSSYSYIHWYQQKPGQPPKLLIKYASSLESGVPARFSGSGSGTDFTLNISPVEEEDTATYYCQHSWEIPWTFGPGTTVEIK
notes: also called immunogenicity-reduced Ab VH3/VL2
B3: E DI VH1/VL2 (antibody, V domains shown)
VH: DVQLQESGPGLVKPSQTLSLTCTVSGYSMTSDYAWNWIRQFPGKGLEWIGYISYSGSTTYHPSVKSRITISRDTSKNQFFLQMNSVTTEDTATTYCTTIINYDKYDWYFDYWGQGTTVTVSS
VL: DIVLTQSPASLVVSVRQRATISCRASQSVRTSSYSYIHWYQQKPGQPPKLLIKYASSLESGVPARFSGSGSGTDFTLNISPVEEEDTATYYCQHSWEIPWTFGPGTTVEIK
B4: E DI VH3/VL1 12H10 (antibody, V domains shown)
VH: DVQLQESGPGLVKPSQTLSLTCTVSGYSMTSDYAWNWIRQFPGKGLEWIGYISYSGSTSYHPSLKSRISISRDTSKNQFFLQMNSVTTEDTATYYCTTIINYDKYDWYFDVWGQGTTVTVSS
VL: DIVLTQSPASLVVSVRQRATISCRASQSVRTSSYSYIHWYQQKPGQPPKLLIYYASSLESGVPARFSGSGSGTDFTLNISPVEEEDTATYYCQHSWEIPWTFGPGTKVEIK
notes: also called immunogenicity-reduced Ab VH3/VL1
B5: E DI VH5/VL1 (antibody, V domains shown)
VH: DVQLQESGPGLVKPSQTLSLTCTVTGYSITSDYAWNWIRQFPGKGLEWMGYISYSGSTSYHPSLKSRISISRDTSKNQFFLQMNSVTTEDTATYYCTTIINYDKYDWYFDVWGQGTTVTVSS
VL: DIVLTQSPASLVVSVRQRATISCRASQSVRTSSYSYIHWYQQKPGQPPKLLIYYASSLESGVPARFSGSGSGTDFTLNISPVEEEDTATYYCQHSWEIPWTFGPGTKVEIK
notes: also called immunogenicity-reduced Ab VH5/VL1
B6: E DI VH2/VL1 44H1 (antibody, V domains shown)
VH: DVQLQESGPGLVKPSQTLSLTCTVSGYSMTSDYAWNWIRQFPGKGLEWIGYISYSGSTSYHPSVKSRITISRDTSKNQFFLQMNSVTTEDTATYYCTTIINYDKYDWYFDVWGQGTTVTVSS
VL: DIVLTQSPASLVVSVRQRATISCRASQSVRTSSYSYIHWYQQKPGQPPKLLIYYASSLESGVPARFSGSGSGTDFTLNISPVEEEDTATYYCQHSWEIPWTFGPGTKVEIK
notes: also called immunogenicity-reduced Ab VH2/VL1

Key:
[1] = target: T1, human erythrocyte complement receptor 1 (CR1) (human, UniProt P17927 42-2039); experiment: erythrocyte binding assay (FIGS. 10-13)
T1 construct: whole, on cells; also called C3b receptor; CD35

[2] = target: T1, human erythrocyte complement receptor 1 …; experiment: erythrocyte binding assay, antibody with RBCs in solution, A405 read-out

T1 sequence (P17927 42-2039): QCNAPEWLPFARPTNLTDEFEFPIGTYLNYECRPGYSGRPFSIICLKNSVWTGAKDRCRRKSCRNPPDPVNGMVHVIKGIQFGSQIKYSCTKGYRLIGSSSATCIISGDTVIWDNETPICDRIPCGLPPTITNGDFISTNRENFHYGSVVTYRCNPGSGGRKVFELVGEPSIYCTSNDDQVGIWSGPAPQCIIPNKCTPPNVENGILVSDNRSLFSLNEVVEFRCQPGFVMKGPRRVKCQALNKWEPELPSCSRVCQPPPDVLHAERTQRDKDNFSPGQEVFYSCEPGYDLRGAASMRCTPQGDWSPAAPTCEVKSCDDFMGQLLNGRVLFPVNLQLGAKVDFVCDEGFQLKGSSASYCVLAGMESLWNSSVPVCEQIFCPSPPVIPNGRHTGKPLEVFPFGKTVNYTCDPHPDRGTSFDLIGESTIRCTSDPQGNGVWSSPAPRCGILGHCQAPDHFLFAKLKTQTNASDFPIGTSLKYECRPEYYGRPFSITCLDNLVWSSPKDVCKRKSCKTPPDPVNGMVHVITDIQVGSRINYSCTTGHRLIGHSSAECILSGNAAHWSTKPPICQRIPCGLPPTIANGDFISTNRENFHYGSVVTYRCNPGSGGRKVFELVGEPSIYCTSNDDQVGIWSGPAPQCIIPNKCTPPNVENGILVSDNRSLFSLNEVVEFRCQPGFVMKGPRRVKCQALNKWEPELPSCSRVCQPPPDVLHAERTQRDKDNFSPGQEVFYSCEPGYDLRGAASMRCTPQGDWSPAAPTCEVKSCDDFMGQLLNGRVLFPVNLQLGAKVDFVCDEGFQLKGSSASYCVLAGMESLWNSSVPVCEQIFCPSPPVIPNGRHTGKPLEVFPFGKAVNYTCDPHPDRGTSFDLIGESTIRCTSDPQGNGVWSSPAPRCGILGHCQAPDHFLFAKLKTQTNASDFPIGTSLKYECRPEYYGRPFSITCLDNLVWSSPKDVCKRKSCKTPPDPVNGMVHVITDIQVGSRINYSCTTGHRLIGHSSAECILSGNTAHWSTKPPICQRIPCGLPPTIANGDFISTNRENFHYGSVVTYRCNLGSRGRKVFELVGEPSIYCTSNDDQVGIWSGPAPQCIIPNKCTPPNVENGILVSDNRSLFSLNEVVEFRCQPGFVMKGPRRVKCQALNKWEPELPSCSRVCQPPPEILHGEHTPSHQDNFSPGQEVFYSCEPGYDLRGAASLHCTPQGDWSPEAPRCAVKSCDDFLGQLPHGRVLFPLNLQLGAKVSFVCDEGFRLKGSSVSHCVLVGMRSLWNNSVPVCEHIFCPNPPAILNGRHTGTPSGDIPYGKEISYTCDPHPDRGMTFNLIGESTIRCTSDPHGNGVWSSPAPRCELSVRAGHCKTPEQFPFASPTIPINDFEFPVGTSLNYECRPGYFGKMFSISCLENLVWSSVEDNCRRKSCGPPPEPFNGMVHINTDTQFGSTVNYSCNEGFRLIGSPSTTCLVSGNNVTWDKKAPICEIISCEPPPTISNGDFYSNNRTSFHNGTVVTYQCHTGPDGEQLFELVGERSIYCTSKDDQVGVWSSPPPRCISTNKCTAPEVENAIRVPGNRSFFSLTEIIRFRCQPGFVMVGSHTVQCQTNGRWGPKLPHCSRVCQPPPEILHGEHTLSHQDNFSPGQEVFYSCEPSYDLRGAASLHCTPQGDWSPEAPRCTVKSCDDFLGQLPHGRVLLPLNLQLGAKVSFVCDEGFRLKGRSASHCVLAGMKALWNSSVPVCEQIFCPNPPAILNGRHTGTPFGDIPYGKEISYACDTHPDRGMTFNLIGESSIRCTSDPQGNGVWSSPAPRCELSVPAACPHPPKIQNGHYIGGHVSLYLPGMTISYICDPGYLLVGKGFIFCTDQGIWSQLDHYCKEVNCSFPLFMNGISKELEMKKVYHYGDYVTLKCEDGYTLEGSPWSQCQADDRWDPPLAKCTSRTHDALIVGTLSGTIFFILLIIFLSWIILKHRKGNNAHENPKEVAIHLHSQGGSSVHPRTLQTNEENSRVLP

| Binder | fold reduction of binding compared to the chimeric antibody [1] | ng of antibody at A405 0.4 [2] |
| --- | --- | --- |
| B1 | ~10 fold | 30 ng |
| B2 | ~10 fold |  |
| B3 | ~10 fold | 9 ng |
| B4 |  | 4 ng |
| B5 |  | 2 ng |
| B6 | ~2 fold | 12 ng |
